The source of these data is US20210380703A1 (RIGEL PHARMACEUTICALS, published 2021).

One experiment deals with T1, Goat anti-Human Kappa.
T1 construct: Positive control; also called biotinylated goat anti-human kappa light chain
The experiment can be described thus: ELISA; positive control. How it is done: (§1) The binding of ACVR2A-specific monoclonal antibodies to human ACVR2A, mouse ACVR2A, biotinylated goat anti-human kappa light chain (positive control) and human Fc (negative control) were determined by ELISA.
(In general: An ELISA detects its analyte on a solid surface through an enzyme-linked reagent.)

The next experiment concerns the target T2, Human ACVR2A (human, UniProt P27037 20-135, limits assumed).
T2 construct: also called activin receptor, type II A
Description: ELISA. How it is done: as §1

The next experiment deals with Mouse ACVR2A (mouse, UniProt P27038 20-135, limits assumed). The experiment can be described thus: ELISA. On the procedure: as §1
Also: test concentration or dose not given here.

Chain of Mouse ACVR2A (P27038 20-135 limits assumed): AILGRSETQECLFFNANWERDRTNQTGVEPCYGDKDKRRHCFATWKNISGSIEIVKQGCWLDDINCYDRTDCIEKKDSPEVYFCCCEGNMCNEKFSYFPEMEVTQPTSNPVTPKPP
T2 sequence (P27037 20-135 limits assumed): as the sequence (P27038 20-135 limits assumed) above, with R20K, I73V counted along it

B1: 367_H10 (antibody, V domains shown)
VH: EVQLLESGGGLVQPGGSLRLSCAASGFTFSSYGMNWVRQAPGKGLEWVASINYNGGYTGYADSVKGRFTISRDNSKNTLYLQMNSLRAEDTAVYYCARGATWHDTHLDYWGQGTLVTVSS
VL: DIQMTQSPSSLSASVGDRVTITCRASQSILSYVNWYQQKPGKAPKLVIYAATSRASGVPSRFSGSGSGTDFTLTISSLQPEDFATYYCQQSYELPLTFGGGTKVEIK
notes: VH/VL only
Take B1: the values for the optical density with Goat anti-Human Kappa, with Human ACVR2A and with Mouse ACVR2A were 3.55 OD, 2.58 OD and 2.35 OD, respectively.

B2: 368_G10 (antibody, V domains shown)
VH: EVQLLESGGGLVQPGGSLRLSCAASGFTFSSYSMHWVRQAPGKGLEWVSSINYNGGYTSYADSVKGRFTISRDNSKNTLYLQMNSLRAEDTAVYYCARGATWHDTHLDYWGQGTLVTVSS
VL: DIQMTQSPSSLSASVGDRVTITCRASQSIVSYVNWYQQKPGKAPKLVIYAATSRASGVPSRFSGSGSGTDFTLTISSLQPEDFATYYCQQSYDTPLTFGGGTKVEIK
notes: VH/VL only
With B2, the results for the optical density with Goat anti-Human Kappa, with Human ACVR2A and in the experiment with Mouse ACVR2A were 3.45 OD, 2.06 OD and 2.28 OD, respectively.

B3: 369_E05 (antibody, V domains shown)
VH: EVQLLESGGGLVQPGGSLRLSCAASGFTFSDYGMNWVRQAPGKGLEWVANINYNGGYKSYADSVKGRFTISRDNSKNTLYLQMNSLRAEDTAVYYCARGATWHDTHLDYWGQGTLVTVSS
VL: DIQMTQSPSSLSASVGDRVTITCRASQSILTYLNWYQQKPGKAPKLLIYAATSLASGVPSRFSGSGSGTDFTLTISSLQPEDFATYYCQQSYETPLTFGGGTKVEIK
notes: VH/VL only
B3: the optical density with Goat anti-Human Kappa was 1.9 OD; with Human ACVR2A, 1.41 OD; in the experiment with Mouse ACVR2A it was 1.64 OD.

B4: 368_B02 (antibody, V domains shown)
VH: EVQLLESGGGLVQPGGSLRLSCAASGFTFSSYGMNWVRQAPGKGLEWVSGINYNSGYKSYADSVKGRFTISRDNSKNTLYLQMNSLRAEDTAVYYCARGATWHDTHLDYWGQGTLVTVSS
VL: not shown
notes: VH/VL only
Regarding B4, the optical density stood at 3.61 OD in the experiment with Goat anti-Human Kappa, 2.08 OD with Human ACVR2A and 2.24 OD in the experiment with Mouse ACVR2A.

B5: 369_D08 (antibody, V domains shown)
VH: EVQLLESGGGLVQPGGSLRLSCAASGFTFSDYSMNWVRQAPGKGLEWVASINYNGGYKGYADSVKGRFTISRDNSKNTLYLQMNSLRAEDTAVYYCARGATWHDTHLDYWGQGTLVTVSS
VL: DIQMTQSPSSLSASVGDRVTITCRASQSILTYLNWYQQKPGKAPKLLIYAATSRASGVPSRFSGSGSGTDFTLTISSLQPEDFATYYCQQSYDTPLTFGGGTKVEIK
notes: VH/VL only
Regarding B5, the optical density with Goat anti-Human Kappa is 3.06 OD; with Human ACVR2A, 2.94 OD; with Mouse ACVR2A, 3.13 OD.

B6: 368_D02 (antibody, V domains shown)
VH: EVQLLESGGGLVQPGGSLRLSCAASGFTFDDYGMNWVRQAPGKGLEWVSNINYNGGYTGYADSVKGRFTISRDNSKNTLYLQMNSLRAEDTAVYYCARGATWHDTHLDYWGQGTLVTVSS
VL: DIQMTQSPSSLSASVGDRVTITCRASQSISTYLNWYQQKPGKAPKLVIYAATSRHSGVPSRFSGSGSGTDFTLTISSLQPEDFATYYCQQSYDTPLTFGGGTKVEIK
notes: VH/VL only
Take B6: the optical density with Goat anti-Human Kappa came to 3.52 OD; in the experiment with Human ACVR2A, 1.93 OD; with Mouse ACVR2A, 2.26 OD.

B7: 368_C11 (antibody, V domains shown)
VH: EVQLLESGGGLVQPGGSLRLSCAASGFTFSDYSMNWVRQAPGKGLEWVSSINYNSGYKSYADSVKGRFTISRDNSKNTLYLQMNSLRAEDTAVYYCARGATWHDTHLDYWGQGTLVTVSS
VL: DIQMTQSPSSLSASVGDRVTITCRASQSIISYLNWYQQKPGKAPKLLIYAATSRASGVPSRFSGSGSGTDFTLTISSLQPEDFATYYCQQSYDNPLTFGGGTKVEIK
notes: VH/VL only
In the case of B7, the optical density amounted to 3.56 OD with Goat anti-Human Kappa, 2.03 OD with Human ACVR2A and 2.21 OD with Mouse ACVR2A.

B8: 368_D12 (antibody, V domains shown)
VH: EVQLLESGGGLVQPGGSLRLSCAASGFTFSSYGMNWVRQAPGKGLEWVSSINYNGGYTSYADSVKGRFTISRDNSKNTLYLQMNSLRAEDTAVYYCARGATWHDTHLDYWGQGTLVTVSS
VL: DIQMTQSPSSLSASVGDRVTITCRASQSILSYVNWYQQKPGKAPKLVIYAATSRASGVPSRFSGSGSGTDFTLTISSLQPEDFATYYCQQSYNNPLTFGGGTKVEIK
notes: VH/VL only
Turning to B8, the values for the optical density with Goat anti-Human Kappa, in the experiment with Human ACVR2A and in the experiment with Mouse ACVR2A were 3.57 OD, 2.25 OD and 2.28 OD, respectively.

B9: 368_H06 (antibody, V domains shown)
VH: EVQLLESGGGLVQPGGSLRLSCAASGFTFDSYGMHWVRQAPGKGLEWVANINYNGGYKSYADSVKGRFTISRDNSKNTLYLQMNSLRAEDTAVYYCARGATWHDTHLDYWGQGTLVTVSS
VL: DIQMTQSPSSLSASVGDRVTITCRASQSILTYVNWYQQKPGKAPKLLIYATTSRASGVPSRFSGSGSGTDFTLTISSLQPEDFATYYCQQSYDNPLTFGGGTKVEIK
notes: VH/VL only
For B9, the optical density with Goat anti-Human Kappa worked out at 3.61 OD; in the experiment with Human ACVR2A, 2.35 OD; with Mouse ACVR2A it was 2.65 OD.

B10: 369_F09 (antibody, V domains shown)
VH: EVQLLESGGGLVQPGGSLRLSCAASGFTFSSYGMHWVRQAPGKGLEWVAGINYNGGYTSYADSVKGRFTISRDNSKNTLYLQMNSLRAEDTAVYYCARGATWHDTHLDYWGQGTLVTVSS
VL: DIQMTQSPSSLSASVGDRVTITCRASQSILTYVNWYQQKPGKAPKLLIYAATSRASGVPSRFSGSGSGTDFTLTISSLQPEDFATYYCQQSYDSPLTFGGGTKVEIK
notes: VH/VL only
B10: the optical density in the experiment with Goat anti-Human Kappa stood at 3.6 OD; with Human ACVR2A, 3.23 OD; with Mouse ACVR2A, 3.38 OD.

B11: 369_F05 (antibody, V domains shown)
VH: EVQLLESGGGLVQPGGSLRLSCAASGFTFSSYSMNWVRQAPGKGLEWVSGINYNGGYKSYADSVKGRFTISRDNSKNTLYLQMNSLRAEDTAVYYCARGATWHDTHLDYWGQGTLVTVSS
VL: DIQMTQSPSSLSASVGDRVTITCRASQSISSYLNWYQQKPGKAPKLLIYAASSLQSGVPSRFSGSGSGTDFTLTISSLQPEDFATYYCQQGYDSPLTFGGGTKVEIK
notes: VH/VL only
In the case of B11, the optical density with Goat anti-Human Kappa is 3.46 OD; with Human ACVR2A it was 0.796 OD; with Mouse ACVR2A, 0.931 OD.

B12: 369_A11 (antibody, V domains shown)
VH: EVQLLESGGGLVQPGGSLRLSCAASGFTFDSYGMNWVRQAPGKGLEWVANINYNGGYKGYADSVKGRFTISRDNSKNTLYLQMNSLRAEDTAVYYCARGATWHDTHLDYWGQGTLVTVSS
VL: DIQMTQSPSSLSASVGDRVTITCRASQSIITYLNWYQQKPGKAPKLVIYAATSRHSGVPSRFSGSGSGTDFTLTISSLQPEDFATYYCQQSYESPLTFGGGTKVEIK
notes: VH/VL only
Take B12: the values for the optical density in the experiment with Goat anti-Human Kappa, with Human ACVR2A and with Mouse ACVR2A were 3.29 OD, 2.64 OD and 2.77 OD, respectively.

B13: 369_C12 (antibody, V domains shown)
VH: EVQLLESGGGLVQPGGSLRLSCAASGFTFSSYGMNWVRQAPGKGLEWVANINYNGGYKGYADSVKGRFTISRDNSKNTLYLQMNSLRAEDTAVYYCARGATWHDTHLDYWGQGTLVTVSS
VL: DIQMTQSPSSLSASVGDRVTITCRASQSILTYLNWYQQKPGKAPKLLIYAATSRHSGVPSRFSGSGSGTDFTLTISSLQPEDFATYYCQQSYDTPLTFGGGTKVEIK
notes: VH/VL only
As for B13, the optical density in the experiment with Goat anti-Human Kappa was 3.74 OD; with Human ACVR2A, 3.43 OD; in the experiment with Mouse ACVR2A, 3.45 OD.

B14: 368_G03 (antibody, V domains shown)
VH: EVQLLESGGGLVQPGGSLRLSCAASGFTFSSYSMNWVRQAPGKGLEWVSGINYNSGYTSYADSVKGRFTISRDNSKNTLYLQMNSLRAEDTAVYYCARGATWHDTALDYWGQGTLVTVSS
VL: DIQMTQSPSSLSASVGDRVTITCRASQSILSYLNWYQQKPGKAPKLVIYAATSRASGVPSRFSGSGSGTDFTLTISSLQPEDFATYYCQQSYDTPLTFGGGTKVEIK
notes: VH/VL only
Consider B14, for which the optical density in the experiment with Goat anti-Human Kappa came out at 3.39 OD; in the experiment with Human ACVR2A, 2.73 OD; with Mouse ACVR2A it was 2.75 OD.

B15: 369_E08 (antibody, V domains shown)
VH: EVQLLESGGGLVQPGGSLRLSCAASGFTFSSYSMNWVRQAPGKGLEWVASINYNSGYTGYADSVKGRFTISRDNSKNTLYLQMNSLRAEDTAVYYCARGATWHDTHLDYWGQGTLVTVSS
VL: DIQMTQSPSSLSASVGDRVTITCRASQSILTYVNWYQQKPGKAPKLLIYAATSRASGVPSRFSGSGSGTDFTLTISSLQPEDFATYYCQQSYDSPLTFGGGTKVEIK
notes: VH/VL only
Turning to B15, the optical density with Goat anti-Human Kappa is 1.12 OD; with Human ACVR2A, 1.03 OD; with Mouse ACVR2A it was 1.23 OD.

B16: 368_H11 (antibody, V domains shown)
VH: EVQLLESGGGLVQPGGSLRLSCAASGFTFDSYGMHWVRQAPGKGLEWVASINYNGGYTSYADSVKGRFTISRDNSKNTLYLQMNSLRAEDTAVYYCARGATWHDTHLDYWGQGTLVTVSS
VL: DIQMTQSPSSLSASVGDRVTITCRASQSILSYLNWYQQKPGKAPKLLIYAATSRASGVPSRFSGSGSGTDFTLTISSLQPEDFATYYCQQSDDTPLTFGGGTKVEIK
notes: VH/VL only
For B16, the optical density in the experiment with Goat anti-Human Kappa was 3.51 OD; with Human ACVR2A, 1.95 OD; with Mouse ACVR2A, 2.13 OD.

B17: 369_G05 (antibody, V domains shown)
VH: EVQLLESGGGLVQPGGSLRLSCAASGFTFSSYSMNWVRQAPGKGLEWVAGINYNGGYTSYADSVKGRFTISRDNSKNTLYLQMNSLRAEDTAVYYCARGATWHDTHLDYWGQGTLVTVSS
VL: DIQMTQSPSSLSASVGDRVTITCRASQSIVSYLNWYQQKPGKAPKLLIYAATSRHSGVPSRFSGSGSGTDFTLTISSLQPEDFATYYCQQSYDSPLTFGGGTKVEIK
notes: VH/VL only
For B17, the results for the optical density with Goat anti-Human Kappa, with Human ACVR2A and with Mouse ACVR2A were 3.31 OD, 3.04 OD and 3.28 OD, respectively.

B18: 368_F06 (antibody, V domains shown)
VH: EVQLLESGGGLVQPGGSLRLSCAASGFTFDDYSMHWVRQAPGKGLEWVANINYNSGYTGYADSVKGRFTISRDNSKNTLYLQMNSLRAEDTAVYYCARGATWHDTHLDYWGQGTLVTVSS
VL: DIQMTQSPSSLSASVGDRVTITCRASQSILSYLNWYQQKPGKAPKLVIYATTSRASGVPSRFSGSGSGTDFTLTISSLQPEDFATYYCQQSYENPLTFGGGTKVEIK
notes: VH/VL only
B18: the optical density with Goat anti-Human Kappa came out at 3.31 OD; in the experiment with Human ACVR2A it was 1.6 OD; in the experiment with Mouse ACVR2A, 1.68 OD.
